According to the supplement of paper PMC6757056:
± gives the standard deviation of the averaged measurements.

B1: library; a variant is named by its letters at N, in order (parent)
chain: GCUGUCACCGAGAAACUGUGAAGUAUAUCUUAAACCUGGGCACUUAAAAGAUAUAUGGAGUUAGUAGUGCAACCUGCUCGGUCUGAUGAGUCCNNNNNNGGACGAAACAGC

Legend:
[1] = variants of: B1; test: FACS-Seq fitted mean relative fluorescence mCherry/BFP without ligand (log10 relative fluorescence); HEK293T; ligand: cyclic di-GMP (c-di-GMP-II aptamer); higher = higher reporter protein expression; settings: ligand present: no
Procedure, shortened: (§1)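 An mCherry reporter containing the ribozyme switch and an EF1α-BFP marker were introduced by lentivirus into HEK293T libraries. Cells were enriched, incubated 48 h with or without ligand, sorted into 6 bins by mCherry/BFP, and bin genomic DNA was PCR-amplified, barcoded and sequenced on MiSeq. Fluorescence represents the normalized fitted normal mean of the bin counts. Fitting was done on log10(mCherry/BFP), scaling to five spiked-in control ribozymes.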

[2] = variants of: B1; test: normalized RNA/DNA level without ligand (relative to sTRSVctl = 100) (log10 (% of sTRSVctl)); HEK293T; ligand: cyclic di-GMP (c-di-GMP-II aptamer); higher = less ribozyme self-cleavage, higher mRNA level; settings: reporter: mCherry (pCS4076), ligand present: no
Description: (§2)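 Hammerhead (sTRSV) ribozyme switch libraries with a ligand aptamer grafted on stem I and a randomized N4-6 loop II, cloned into the 3' UTR of mCherry and transiently transfected into HEK293T cells; RNA-Seq 72 h post transfection with ligand added 1 h before transfection; RNA read count / plasmid DNA read count normalized to the non-cleaving sTRSVctl (x100), log10; sequences with >100 DNA reads. FACS-Seq: lentiviral library sorted into 6 bins after 48 h ligand, log-normal fit mean of mCherry/BFP scaled to controls. Printed sequences are partial switch sequences.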

[3] = variants of: B1; test: FACS-Seq fitted mean relative fluorescence mCherry/BFP with ligand (log10 relative fluorescence); HEK293T; ligand: cyclic di-GMP (c-di-GMP-II aptamer); ligand concentration (+) FACS-Seq: 1 mM; higher = higher reporter protein expression; settings: ligand present: yes
Procedure, shortened: as §1

[4] = variants of: B1; test: normalized RNA/DNA level with ligand (relative to sTRSVctl = 100) (log10 (% of sTRSVctl)); HEK293T; ligand: cyclic di-GMP (c-di-GMP-II aptamer); ligand concentration (+) RNA-Seq: 1 mM; higher = less ribozyme self-cleavage, higher mRNA level; settings: reporter: mCherry (pCS4076), ligand present: yes
Description: as §2

Row | Variant | FACS-Seq fitted mean (log10) [1] | normalized RNA/DNA level without ligand (log10) [2] | FACS-Seq fitted mean (log10) [3] | normalized RNA/DNA level with ligand (log10) [4]
1 | GCUGUCACCGAGAAACUGUGAAGUAUAUCUUAAACCUGGGCACUUAAAAGAUAUAUGGAGUUAGUAGUGCAACCUGCUCGGUCUGAUGAGUCCCAGUAUGGACGAAACAGC | -0.4929 ± 0.0046 | 1.4 ± 0.1 | -0.197 ± 0.0062 | 1.58 ± 0.17
2 | GCUGUCACCGAGAAACUGUGAAGUAUAUCUUAAACCUGGGCACUUAAAAGAUAUAUGGAGUUAGUAGUGCAACCUGCUCGGUCUGAUGAGUCCCAGUAAGGACGAAACAGC | -0.526 ± 0.094 | 1.14 ± 0.14 | -0.22 ± 0.0072 | 1.33 ± 0.073
3 | GCUGUCACCGAGAAACUGUGAAGUAUAUCUUAAACCUGGGCACUUAAAAGAUAUAUGGAGUUAGUAGUGCAACCUGCUCGGUCUGAUGAGUCCAAGGUUGGACGAAACAGC | -0.341 ± 0.089 | 1.59 ± 0.022 | -0.152 ± 0.091 | 1.8 ± 0.1
4 | GCUGUCACCGAGAAACUGUGAAGUAUAUCUUAAACCUGGGCACUUAAAAGAUAUAUGGAGUUAGUAGUGCAACCUGCUCGGUCUGAUGAGUCCAAGGUAGGACGAAACAGC | -0.681 ± 0.028 | 1.4 ± 0.091 | -0.372 ± 0.038 | 1.57 ± 0.13
5 | GCUGUCACCGAGAAACUGUGAAGUAUAUCUUAAACCUGGGCACUUAAAAGAUAUAUGGAGUUAGUAGUGCAACCUGCUCGGUCUGAUGAGUCCAAGGUGGGACGAAACAGC | -0.189 ± 0.0061 | 1.51 ± 0.072 | 0.04 ± 0.083 | 1.69 ± 0.11
6 | GCUGUCACCGAGAAACUGUGAAGUAUAUCUUAAACCUGGGCACUUAAAAGAUAUAUGGAGUUAGUAGUGCAACCUGCUCGGUCUGAUGAGUCCGAGUAAGGACGAAACAGC | -0.0125 ± 0.15 | 1.71 ± 0.027 | 0.165 ± 0.029 | 1.81 ± 0.069
7 | GCUGUCACCGAGAAACUGUGAAGUAUAUCUUAAACCUGGGCACUUAAAAGAUAUAUGGAGUUAGUAGUGCAACCUGCUCGGUCUGAUGAGUCCGAGUAGGGACGAAACAGC | -0.7206 ± 0.0025 | 1.84 ± 0.075 | -0.563 ± 0.061 | 1.89 ± 0.12
8 | GCUGUCACCGAGAAACUGUGAAGUAUAUCUUAAACCUGGGCACUUAAAAGAUAUAUGGAGUUAGUAGUGCAACCUGCUCGGUCUGAUGAGUCCUAGUCCGGACGAAACAGC | 0.148 ± 0.14 | 1.72 ± 0.1 | 0.203 ± 0.041 | 1.85 ± 0.086
9 | GCUGUCACCGAGAAACUGUGAAGUAUAUCUUAAACCUGGGCACUUAAAAGAUAUAUGGAGUUAGUAGUGCAACCUGCUCGGUCUGAUGAGUCCUAGUAUGGACGAAACAGC | -0.121 ± 0.12 | 1.61 ± 0.028 | 0.192 ± 0.1 | 1.78 ± 0.064
10 | GCUGUCACCGAGAAACUGUGAAGUAUAUCUUAAACCUGGGCACUUAAAAGAUAUAUGGAGUUAGUAGUGCAACCUGCUCGGUCUGAUGAGUCCAAGGGGGGACGAAACAGC | -0.499 ± 0.044 | 1.47 ± 0.087 | -0.103 ± 0.12 | 1.63 ± 0.1
11 | GCUGUCACCGAGAAACUGUGAAGUAUAUCUUAAACCUGGGCACUUAAAAGAUAUAUGGAGUUAGUAGUGCAACCUGCUCGGUCUGAUGAGUCCAAGGGUGGACGAAACAGC | -0.547 ± 0.0094 | 1.53 ± 0.091 | -0.278 ± 0.052 | 1.7 ± 0.061
12 | GCUGUCACCGAGAAACUGUGAAGUAUAUCUUAAACCUGGGCACUUAAAAGAUAUAUGGAGUUAGUAGUGCAACCUGCUCGGUCUGAUGAGUCCUAGGGUGGACGAAACAGC | -0.424 ± 0.015 | 1.61 ± 0.075 | -0.0926 ± 0.068 | 1.78 ± 0.13
13 | GCUGUCACCGAGAAACUGUGAAGUAUAUCUUAAACCUGGGCACUUAAAAGAUAUAUGGAGUUAGUAGUGCAACCUGCUCGGUCUGAUGAGUCCUAGGGAGGACGAAACAGC | -0.172 ± 0.12 | 1.53 ± 0.039 | -0.000875 ± 0.13 | 1.68 ± 0.14
